Here are results for one substance from article PMC8750153.

This test concerns the target PpPex11 H2 WT peptide (Pichia pastoris). Kind of test: pull-down; biotinylated peptides on streptavidin affinity gel as bait; soluble lysate fraction of His6-tagged GFP-Pex11s as prey, 1 h at room temperature; 50 mM Tris pH 8.0, 50 mM NaCl, 5 mM EDTA; anti-GFP immunoblot. Background: In western blotting, separated proteins are transferred to a membrane and probed.

His6-GFP-Pex11 (natural protein) displayed a fold binding against the H3 peptide of 2.5 fold.
